The labels stand for the following.
B1: OR4K15 (parent)
chain: GUUAACGGUCAUAGGCCAUGGAAACUAGGAGCACCAUUUCGCUGCCAGUGAAGAAAUGAACAAAGAAAAUCUGGGCCAGGCAGGCAUCAAAAGAAAUAGUCUUGCGCUCAACCAGAAAGUCUGUAAUCAUUUUAAGGGUA

In the series the parent is B1. In words: self-cleavage, relative activity (ratio to wild type); higher = more cleavage; in vitro, sequencing; the parent is a self-cleaving ribozyme.
GUUAACGGUCAUAGGCCAUGGAAACUAGGAGCACCAUUUCGCUGCCAGUGAAGAAAUGAACAAAGAAAAUCUGGGCCAGGCAGGCAUCAAAAGAAAUAGUCUUGCGCUCAACCAGAGAGUCUGUAGUCAUUUUAAGGGUA [A117G A126G]: the self-cleavage worked out at 1.27.

For GUUAACGGUCAUAGGCCAUGGAAACUAGGAGCACCAUCUCGCUGCCAGUGAAGAAAUGAACAAAGAAAAUCUGGGCCAGGCAGGCAUCAAAAGAAAUAGUCUGGCGCUCAACCAGAAAGUCUGUAAUCAUUUUAAGGGUA [U38C U103G], the self-cleavage was found to be 0.03.

In the case of GUUAACGGUCAUAGGCCAUGGAAACUAGGAGCACCAUUUCGCUGCCAGUGAAGAAAUGAACAAAGAAAAUCUGGGCCAGGCAGGCAUCAAAAGAAAUAGUCAUGCGUUCAACCAGAAAGUCUGUAAUCAUUUUAAGGGUA [U102A C107U], the self-cleavage was 0.01.

GUUAACGGUCAUAGGCCAUGGAAACUAGGAGCACCAUUUCGCUGCCAGUGAAGAAAUGAACAAAGAAAAUCUGGGCCAGGUAGGCAUCAAAAGAAAUAGUCUAGCGCUCAACCAGAAAGUCUGUAAUCAUUUUAAGGGUA [C81U U103A]: the self-cleavage is 0.1.

As for GUUAACGGUCAUAGGCCAUGGAAACUAGGAGCACCAUUUCGCUGCCAGUGAAGAAAUGAACAAAGAAAAUCUGGGCCAGGCAGGCAUCAAAAGAAAUAGUCUUGCGCUCAACCAGAAAGUCUGUAGUCAUUUUAAGGGAA [A126G U139A], the self-cleavage is 0.

For GUUAACGGUCACAGGCCAUGGAAACUAGGAGCACCAUUUCGCUGCCAGUGAAGAAAUGAACAAAGAAAAUCUGGGCCAGGCAGGCAUCAAAAGAAAUAGUCUUGCGCUCAACCAGAAAGUCUGUAGUCAUUUUAAGGGUA [U12C A126G], the self-cleavage turned out to be 0.55.

With GUUAACGGUCAUAGGCCAUGGAAACUAGGAGCACCAUUUCGCCGCCAGUGAAGAAAUGAACAAAGAAAAUCUGGGCCAGGCAGGUAUCAAAAGAAAUAGUCUUGCGCUCAACCAGAAAGUCUGUAAUCAUUUUAAGGGUA [U43C C85U], the self-cleavage is 1.32.

As for GUUAACGGUCAUAGGCCAUGGAAACUAGGAGCACCAUUUCGCUGCCAGUGGAGAAAUGAACAAAGAAAAUCUGGGCCAGGCAGACAUCAAAAGAAAUAGUCUUGCGCUCAACCAGAAAGUCUGUAAUCAUUUUAAGGGUA [A51G G84A], the self-cleavage turned out to be 1.78.

For GUUAACGGUCAUAGGCCAUGGAAACUAGGAGCACCAUUUCGCUGCCAGUGAAUAAAUGAACAAAGAAAAUCUGGGCCAGGCAGGCAUCAAAAGAAAUAGUCUUGCGCUCAACCAGAAGGUCUGUAAUCAUUUUAAGGGUA [G53U A118G], the self-cleavage is 1.67.

For GUUAACGGUCAUAGGCCAUGGAAACUAGGAGCACCAUUUCGCUGCCAGUGAAGAAAUGAACAGAGAAAAUCUGGGCCUGGCAGGCAUCAAAAGAAAUAGUCUUGCGCUCAACCAGAAAGUCUGUAAUCAUUUUAAGGGUA [A63G A78U], the self-cleavage was 0.22.

As to GUUAUCGGUCAUAGGCCAUGGAAACUAGGAGCACCAUUUCGCUGCCAGUGAAGAAAUGAACAAAGAAAAUCUGGGCCAGGCAGGCAUCAAUAGAAAUAGUCUUGCGCUCAACCAGAAAGUCUGUAAUCAUUUUAAGGGUA [A5U A91U], the self-cleavage is 1.64.

For GUUAACGGUCAUAGGCCAUGGAAACUAGGAGCACCAUUUCGCUGCCAGUGAAGAAAUGAACAGAGAAAAUCUGGGCCAGGCAGGCAUCAAAAGAAAUAGUCUUGCGCUCAACCAGGAAGUCUGUAAUCAUUUUAAGGGUA [A63G A116G], the self-cleavage worked out at 1.17.

With GUUAACGGUCAUAGGCCAUGGAAACUAGGAGCACCAUUUCGCUGCCAGUGAAGAAAUGAACAAAGAGAAUCUGGGCCAGGCAGGCAUCAAAAGAAAUAGUCUUGCGCUCAACCAGAAAGUCUGCAAUCAUUUUAAGGGUA [A67G U124C], the self-cleavage was determined as 0.87.

GUUAACGGUCAUAGGCCAUGGAAACUAGGGGCACCAUUACGCUGCCAGUGAAGAAAUGAACAAAGAAAAUCUGGGCCAGGCAGGCAUCAAAAGAAAUAGUCUUGCGCUCAACCAGAAAGUCUGUAAUCAUUUUAAGGGUA [A30G U39A]: the self-cleavage worked out at 0.39.

Turning to GCUAACGGUCAUAGGCCAUGGAAACUAGGAGCACCAUUUCGCUGCCAGUGAAGAAAUGAACAAAGAAAAUCUGGGCCAGGCAGGCAUCAAAAGAAAUAGUCUUGCGCUCAACCAGAAAGUCCGUAAUCAUUUUAAGGGUA [U2C U122C], the self-cleavage was found to be 0.25.

As to GUUAACGGUCAUAGGCCAUGGAAACUAGGAGCACCAUUUCGCUGCCAGUGAAGAAAUGAACAAAGAAAAUCUGGGCCAGGCAGGCAUCAAAAGAAAUAGUCUCGCGCUCAACCUGAAAGUCUGUAAUCAUUUUAAGGGUA [U103C A114U], the self-cleavage worked out at 0.04.

On to GUUAACGGUCAUAGGCCAUGGAAACUAGGAGCACCAUUUCGCUGCCAGUGAAGAAAUGUACCAAGAAAAUCUGGGCCAGGCAGGCAUCAAAAGAAAUAGUCUUGCGCUCAACCAGAAAGUCUGUAAUCAUUUUAAGGGUA [A59U A62C], for which the self-cleavage came to 1.11.

In the case of GUUAACGGUCAUAGGCCAUGGAAACUAGGAGCACCAUUUCGCUGCCAGUGAAGAAAUGAACAUAGAAAAUCUGGGCCAGGCAGGCAUCAAAAGAAAUAGUCUUGCGCUCAACCAGAAAGUCUGUAAUCAUAUUAAGGGUA [A63U U131A], the self-cleavage was 2.65.

Turning to GUUAACGGUCAUAGGCCAUGGAAACUAGGAGCACCAUUUCGCUGCCAGUGAGGAAAUGAACAAAGAAAAUCUGGGCCAGGCAGGCAUCAAAGGAAAUAGUCUUGCGCUCAACCAGAAAGUCUGUAAUCAUUUUAAGGGUA [A52G A92G], the self-cleavage came out at 1.34.

Regarding GUUAACGGUCAUAGGCCAUGGAAACUGGGAGCACCAUUUCGCUGCCAGUGAAGAAAUGAACAAAGAAAAUCUGGGCCAGGCAGGCAACAAAAGAAAUAGUCUUGCGCUCAACCAGAAAGUCUGUAAUCAUUUUAAGGGUA [A27G U87A], the self-cleavage was 1.39.

As to GUUAACGGUCAUAGGCCAUGGGAACUAGGAGCACCAUUUCGCUGCCAGUGAAGAAAUGAACAAAGAAAAUCUGGGCCAGGCAGGCAUCAAAAGAAAUAGUCUUGCGCUUAACCAGAAAGUCUGUAAUCAUUUUAAGGGUA [A22G C109U], the self-cleavage was 0.

On to GUUAACGGUCAUAGGUCAUGGAAACUAGGAGCACCAUUUCGCUGCCAGUGAAGAAAUGAACAAAGAAAAUCUGGGCCAGGCUGGCAUCAAAAGAAAUAGUCUUGCGCUCAACCAGAAAGUCUGUAAUCAUUUUAAGGGUA [C16U A82U], for which the self-cleavage came out at 0.21.

For the variant GUUAACGGUCAUAGGCCAUGGAAACUAGGGGCACCAUUUCGCUGCCAGUGAAGAAAUGAACAAAGAAAAUCUGGGCCAGGCAGGCAUCAAAAGAAAUAGUCUUGCUCUCAACCAGAAAGUCUGUAAUCAUUUUAAGGGUA [A30G G106U], the self-cleavage was 0.04.

GUUAACGGUCAUAGGUCAUGGAAACUAGGAGCACCAUUUCGCUGCCAGUGAAGAAAUGAACAAAGAAAACCUGGGCCAGGCAGGCAUCAAAAGAAAUAGUCUUGCGCUCAACCAGAAAGUCUGUAAUCAUUUUAAGGGUA [C16U U70C]: the self-cleavage came out at 0.79.

GUUAACGGUCAUAGGCCAUGGAAACUAGGAGCACCAUUUCGCUGCCAGUGAAGAAACGAACAAAGAAAAUCUGGGCCAGGCAGGCAUCAAAAGAAAUAGUCUUGCGCUCAACCAGAAAGUAUGUAAUCAUUUUAAGGGUA [U57C C121A]: the self-cleavage is 1.91.

Turning to GUUAACGGUCAUAGGCCAUGGAAACUAGGAGCACCAUUUCGCUGCCAGUGAAGAAGUGAACAAAGAAAAUCUGGGCCAGGCAGGCAUCAAAAGAAAUAGUCUUGCGCUCAACCAGAAGGUCUGUAAUCAUUUUAAGGGUA [A56G A118G], the self-cleavage amounted to 1.19.

For the variant GUUAACGGUCAUAGGCCAUGGAAACUAGGAGCACCAUUUCGCUGCCAGUGAAGAAAUGAACAAAGAAAAUCUGGGCCAGGCAGGCAUCAAAAGAAAUAGUCUUGCGCUCAACCUGAAAGUCUGGAAUCAUUUUAAGGGUA [A114U U124G], the self-cleavage was found to be 0.06.

As to GUUAACGGUCAUAGGCCAUGGAAACUAGGAGCACCAUUUCGCAGCCAGUGAAGAAAUGAACAAAGAAAAUCUGGGCCAGGCAGGCAUCAAAAGAAAUAGUCUUGCGCUCAACCAGAAAGUCUGUAAUCAUUUUAAGGGGA [U43A U139G], the self-cleavage amounted to 2.1.

On to GUUAACGGUCAUAGGCCAUGGAAACUAGGAGCACCAUCUCGCUGCCAGUGAAGAAAUGAACAAAGAAAAUCUGGGCCAGGCAGGCAUCAAAAGAAAUAGUCUUGCGCUCAACCAGAAAGACUGUAAUCAUUUUAAGGGUA [U38C U120A], for which the self-cleavage was found to be 1.76.

For the variant GUUAACGGUCAUAGGCCAUGGAUACUAGGAGCACCAUUUCGCUGCCAGUGAAGAAAUGAACAAAGAAAAUCUGGGCCAGGCAGGCAUCAAAAGAAAUAGUCUUGCGCUCAACCAUAAAGUCUGUAAUCAUUUUAAGGGUA [A23U G115U], the self-cleavage turned out to be 0.21.

GUUAACGGUCAUAGGCCAUGGAAACUAGGAGCACCAUUUCGCUGCCAGUGAAGAAACGAACGAAGAAAAUCUGGGCCAGGCAGGCAUCAAAAGAAAUAGUCUUGCGCUCAACCAGAAAGUCUGUAAUCAUUUUAAGGGUA [U57C A62G]: the self-cleavage stood at 0.7.

GUUAACGGUCAUAGGCCAUGGAAACUAGGAGCACCAUUUCGCUGGCAGUGAAGAAAUGAACAAAGAAAAUCUGGGCCAGGCAGGCAUCAAAAGAAAUAGUCUUGCGCUCAACCAGAAAGUCUGUAAUCAUUUUAAGGGUA [C45G]: the self-cleavage was 1.37.

Turning to GUUAACGGUCAUAGGCCAUGGAAACUAGGAGCACCAUUUCGCUGCCAGUGAAGGAAUGAACAAAGAAAAUCAGGGCCAGGCAGGCAUCAAAAGAAAUAGUCUUGCGCUCAACCAGAAAGUCUGUAAUCAUUUUAAGGGUA [A54G U72A], the self-cleavage came out at 0.19.

For the variant GUUAACGGUCAUUGGCCAUGGAAACUAGGAGCACCAUUUCGCUGCCAGUGAAGAAAUGAACAAAGAACAUCUGGGCCAGGCAGGCAUCAAAAGAAAUAGUCUUGCGCUCAACCAGAAAGUCUGUAAUCAUUUUAAGGGUA [A13U A68C], the self-cleavage is 1.86.

Regarding GUUAACGGUCAUAGGCCAUGGAAACUAGGAGCACCAUUUCGCUGCCAGUGAAGAAAUGAACAAAGAAAAUCUGGGCCAGGCAGGCAUCAAAAGAAAUAGUCUUGCGCUCAACCCGAAAGUCUGCAAUCAUUUUAAGGGUA [A114C U124C], the self-cleavage stood at 0.03.

As for GUUAACGGUCAAAGGCCAUGGAAACUAGGAGCACCAUUUCGCUGCCAGUGAAGAAGUGAACAAAGAAAAUCUGGGCCAGGCAGGCAUCAAAAGAAAUAGUCUUGCGCUCAACCAGAAAGUCUGUAAUCAUUUUAAGGGUA [U12A A56G], the self-cleavage came to 1.58.

On to GUUAACGGUCAUAGGCCAUGGAAACUAGGAGCACCAUUUCGCUGCCAGUGAAGAAAUGAACAAAGAAAAUCUGGGCCAGGCAGGCAUCAAAAGAAAUAGUCUUGCGCUCAACCAGAAAGUCUGUAUCCAUUUUAAGGGUA [A126U U127C], for which the self-cleavage stood at 0.5.

Turning to GUUAACGGUCAUAGGCCAUGGAAACUAGGAGCACCAUUUCGCUGCCAGUGGAGAAAUGAACAAAGAAAAUCUGGGCCAGGCAAGCAUCAAAAGAAAUAGUCUUGCGCUCAACCAGAAAGUCUGUAAUCAUUUUAAGGGUA [A51G G83A], the self-cleavage was 1.42.

As for GUUAACGGUCAUAGGCCAUGGAAACUAGGAGCACCAUUUCGCUACCAGUGAAGAAAUGAACAAAGAAAAUCUGGGCCAGGCAGGCAUCAAAAGAAAUAGUCAUGCGCUCAACCAGAAAGUCUGUAAUCAUUUUAAGGGUA [G44A U102A], the self-cleavage turned out to be 1.56.

In the case of GUUAACGGUCAUAGGCCAUGGAAACUAGGUGCACCAUUUCGCUGCCAGUGAAGAAAUGAACAAAGAAAAUCUGGGCCAGGCAGGCAUCAAAAGAAAUAGUCUUGCGAUCAACCAGAAAGUCUGUAAUCAUUUUAAGGGUA [A30U C107A], the self-cleavage turned out to be 0.01.

With GUUAACGGUCAUAGGCCAUGGAAACUAGGAGCACCAUUUCGCUGCCAGUGAAGAAAUGAACAAAGGAAAUCUGGGCCAGGCAGGCAUCAAAAGAAAUAGUCUUCCGCUCAACCAGAAAGUCUGUAAUCAUUUUAAGGGUA [A66G G104C], the self-cleavage came out at 0.01.
